Measurements reported in patent US20240052061A1 (PURINOMIA BIOTECH, published 2024).
Residue numbers refer to the chain shown, from its start.

T1: human ecto-nucleoside triphosphate diphosphohydrolase-3 (NTPDase3) (human, UniProt O75355 1-529)
T1 sequence (looked up): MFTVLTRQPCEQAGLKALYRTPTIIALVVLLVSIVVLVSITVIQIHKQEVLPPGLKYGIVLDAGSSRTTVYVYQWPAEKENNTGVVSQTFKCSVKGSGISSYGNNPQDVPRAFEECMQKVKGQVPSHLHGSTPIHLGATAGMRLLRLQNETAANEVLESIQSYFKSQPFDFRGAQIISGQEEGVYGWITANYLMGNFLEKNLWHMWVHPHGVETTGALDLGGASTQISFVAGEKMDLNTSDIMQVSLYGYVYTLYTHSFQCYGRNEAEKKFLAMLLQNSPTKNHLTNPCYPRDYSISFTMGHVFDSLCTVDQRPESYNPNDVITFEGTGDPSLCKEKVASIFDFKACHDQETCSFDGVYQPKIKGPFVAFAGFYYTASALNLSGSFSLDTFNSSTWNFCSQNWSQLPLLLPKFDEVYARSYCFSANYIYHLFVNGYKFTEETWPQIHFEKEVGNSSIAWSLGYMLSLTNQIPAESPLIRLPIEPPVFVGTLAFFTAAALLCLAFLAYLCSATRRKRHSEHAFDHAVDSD

B1: PBI #30af4 hIgG1 (antibody, V domains shown)
VH: QVQLQESGGGLIQPGGSLRLSCAASGFTSSSSDYAMSWVRQAPGKGLEWVSSISGSGVSTYYADSVKGRFTISRDNSKNTLYVQMTSLTAEDTAVYYCAKVVGYSVYDYYYHYALDVWGQGTTVTVSS
VL: QPVLTQPPSASGTPGQRVTISCSGSSSNIGSNTVNWYQQLPGTAPKLLIYSDNQRPSGVPDRFSGSKSGTSASLTISGLKTEDEAGYYCQSDDTSNVVFGGGTKVTVL
B2: PBI #30 hIgG1 (antibody, V domains shown)
VH: B1 VH with V58G, V106M
VL: QPVLTQPPSASGTPGQRVTISCSGSSSNIGSNTVNWYQQLPGTAPKLLIYSNNQRPSGVPDRFSGSKSGTSASLTISGLKTEDEAGYYCQSYDTSNVVFGGGTKVTVLG
notes: Fully human IgG1; also called clone PBI #30; original clone PBI #30 hIgG1
B3: PBI #30af4 hIgG4 (antibody, V domains shown)
VH: B1 VH
VL: B1 VL
B4: 38D5 Hu/Ra (antibody, V domains shown)
VH: QELVESGGGLVQPGGSLKLSCKASGIDFNNYGISWVRQAPGKGLEWIAYKYPGFGIRNYANSVKGRFTISSDNAQNTVFLQMTSLAASDTATYFCARGARYRHDDYGALNLWGPGTLVTVSS
VL: DIVMTQTPPSVSAAVGGTVTINCQASQSVTNLLAWYQQKPGQPPKLLIYGASNLESGVPSRFRGSGSGTEFTLTISGMKAEDAATYYCQSGYYSANTFGAGTKVGIKR
B5: 44H5 Hu/Ra (antibody, V domains shown)
VH: QEQLEESGGDLVKPEGSLTLTCTASGFDSSSTYYMCWVRQAPGKGLEWSGCIYTGGLTYYASWAKGRFTISKTSSTTVTLQMTSLTAADTATYFCASYIGSRFYMPGFSLWGPGTLVTVSS
VL: AIVMTQTPSSKSVPVGDTVTINCQASESIYSNNRLAWFQQKPGQPPKLLIYLASTLASGVPSRFKGSGSGTQFTLTISDVVCDDAATYYCAGYKGSSTDGTAFGGGTEVVVKG
B6: 38D5 hIgG1 (antibody, V domains shown)
VH: EQQLLESGGGLVQPGGSLRLSCAASGIDFNNYGISWVRQAPGKGLEWIAYKYPGFGIRNYANSVKGRFTISSDNSKNTVYLQMNSLRAEDTAVYFCARGARYRHDDYGALNLWGPGTLVTVSS
VL: DIQMTQSPSTLSASVGDRVTITCQASQSVTNLLAWYQQKPGKPPKLLIYGASNLESGVPSRFSGSGSGTEFTLTISSLQPDDFATYYCQSGYYSANTFGPGTKVDIK
B7: 38D5 hIgG4 (antibody, V domains shown)
VH: B6 VH
VL: B6 VL
B8: 38D12 Hu/Ra (antibody, V domains shown)
VH: QSVEESGGRLVTPGTPLTLTCTVSGFSLSSYVINWVRQAPGKGLEWIGTISSSGSTYYASWAKGRFTISTTSSTTVDLKITSPTTEDTATYFCARGADGAFISDYFNIWGPGTLVTVSS
VL: DIVMTQTPSSVSAAVGGTVTIKCQANENIDSWLAWYQQKPGQRPKLLIYYASTLASGVPSRFKGSGSGTEYTLTISDLECADGATYYCQSYDTISDYGVGFGGGTEVVVKG
B9: 3E9 Hu/Ra (antibody, V domains shown)
VH: QSLEESGGDLVKPGASLTLTCTASGFSFSSSDWICWVRQAPGKGLEWIACIYAGSIGGAYFASWVNGRFTISRASSTTVTLQMTSLTAADTATYFCARSSSNGRLKLDQFDLWGPGTLVTVSS
VL: AYDMTQTPASVEVAVGGTVTINCQASQSIGGWLSWYRQKPGQPPSLLIYKASTLASGVSSRFSGTGSRTHFTLTINGVQCADAATYYCQQGSAADVANTFGGGTEVVVKG
B10: 4F9 Hu/Ra (antibody, V domains shown)
VH: QSVEESGGRLVTPGTPLTLTCTVSGFSLSSYAMGWVRQAPGKGLEFIGIITYNGNTYYASWAKGRFPISKTSSTTVDLKMTSPTTEDTATYFCARARYGGYSTNSYYLNIWGPGTLVTVSS
VL: DVVMTQTPASVSAAVGGTVTINCQASENIYRILAWYQQKPGQRPKLLIYGASNLETGVPSRFKGSGSGTEYTLTISDLECDDAATYYCQGVLYNSNDSTFGGGTEVVVKG
B11: 42D8 Hu/Ra (antibody, V domains shown)
VH: B10 VH with G54S, S60N
VL: B10 VL with R43P
B12: 37H1 Hu/Ra (antibody, V domains shown)
VH: B10 VH with M33V, N55A, K63E
VL: B10 VL with Y93W
B13: 16D4 Hu/Ra (antibody, V domains shown)
VH: B10 VH with N55G
VL: B10 VL with I32V, N94D, S95N
B14: 8E1 Hu/Ra (antibody, V domains shown)
VH: B10 VH with T51S, N53S, T90N
VL: B10 VL with S12E, I32V, T56S, E70D, L92V, N96D, T99A

target: T1, human ecto-nucleoside triphosphate …; test: cell-based or functional assay

Binder	enzyme activity inhibition capacity, maximal inhibition [%]	ADCC EC50, NFAT luciferase reporter Jurkat/hCD16a-158V [µg/mL]	EC50 of hENTPD3 enzyme activity inhibition, CHO-hENTPD3 cells, antibody 30 minutes [µg/mL]
B1	~100	–	–
B2	–	0.092	17.3
B3	~100	–	–
B4	~40	–	15.9

target: T1, human ecto-nucleoside triphosphate …; test: flow cytometry on COS7-hENTPD3 cells, 2 hours at 37 °C (FIG. 19)
Text: (§1) FIG. 19. Affinity of the fully human anti-hENTPD3 monoclonal antibody PBI #30 hIgG1 measured by flow cytometry using CHO-hENTPD3 and COS7-hENTPD3 cells. Generally, FIG. 19 and following are directed to analyses of anti-hENTPD3 monoclonal antibody clones that have been further optimized exemplary (e.g., affinity maturation and isotype switching for PBI #30 and humanization of 8E1 and 38D5) and related detection methods.

Binder	Kd [nM]
B2	1.82

target: T1, human ecto-nucleoside triphosphate …; test: flow cytometry on COS7-hENTPD3 cells, 30 minutes at 4 °C (FIG. 2)
Text: FIG. 2. Affinity of PBI #30 measured by flow cytometry using hENTPD3 positive COS-7 cells (stably transfected cells).

Binder	Kd [nM]
B2	11.9

target: T1, human ecto-nucleoside triphosphate …; test: flow cytometry on HEK293T-hENTPD3 cells, 30 minutes at 4 °C (FIG. 3)
Text: FIG. 3. Affinity of PBI #30 measured by flow cytometry using hENTPD3 positive HEK293T cells (stably transfected cells).

Binder	Kd [nM]
B2	8.4

target: T1, human ecto-nucleoside triphosphate …; test: flow cytometry on RT4 bladder cancer cells (endogenous hENTPD3), 30 minutes at 4 °C (FIG. 4)
Text: FIG. 4. Affinity of PBI #30 measured by flow cytometry using RT4 bladder cancer cells that endogenously express hENTPD3.

Binder	Kd [nM]
B2	10.1

target: T1, human ecto-nucleoside triphosphate …; test: cell-based or functional assay; remark: another data set of the same source

Binder	ADCC EC50 (µg/mL), NFAT luciferase reporter Jurkat/hCD16a-158V [µg/mL]	Enzyme Activity Inhibition Capacity: % of Maximal Inhibition [%]	ADCC fold increase in relation to parental clone at 1 µg/mL [fold]	CDC % of Maximal Cytotoxicity [%]	CDC EC50 [µg/mL]	Enzyme Activity Inhibition Capacity: EC50 [µg/mL]
B5	0.045	15	–	–	–	–
B6	0.104	43	1.2	4	0.694	0.22
B7	–	41	–	–	–	–
B8	0.059	9	–	–	–	–
B9	0.044	6	–	–	–	–
B10	0.064	12	–	–	–	–
B11	0.072	12	–	–	–	–
B12	0.044	9	–	–	–	–
B13	0.053	9	–	–	–	–
B14	0.075	5	–	13	0.239	–
B1	0.434	91	2.8	–	–	0.82
B2	1.44	76	–	–	–	2.51
B3	–	95	–	–	–	1.33
B4	0.104	44	–	1	1.73	0.31

target: T1, human ecto-nucleoside triphosphate …; test: flow cytometry on CHO-hENTPD3 cells, 2 hours at 37 °C (FIG. 19)
Text: as §1

Binder	Kd [nM]
B2	2.96

target: T1, human ecto-nucleoside triphosphate …; test: flow cytometry on CHO-hENTPD3 cells, 30 minutes at 4 °C (FIG. 1)
Description: FIG. 1. Affinity of PBI #30 measured by flow cytometry using human ENTPD3 (hENTPD3) positive CHO cells (stably transfected cells). PBI #30 was serially diluted as indicated (top dose 333 nM) and incubated with CHO-hENTPD3 cells for 30 minutes at 4° C., followed by secondary antibody staining (anti-human IgG (Fc specific), Alexa Fluor® 488) for 30 minutes at 4° C. and flow cytometry analysis.

Binder	Kd [nM]
B2	5.53
